What all share (assay): crystal structure
In assay [1] the target is HIV-1 (M) CA R120 (arginine restored at CA position 120) (HIV-1 group M).
The target of assay [2] is HIV-1 (M-group) CA Q50Y, disulfide-stabilised hexamer construct (A14C, E45C, Q50Y, W184A, M185A) (HIV-1 group M).
The target in assay [3] is HIV-1 (O-group) CA, disulfide-stabilised hexamer construct (A14C, E45C, W185A, M186A) (HIV-1 group O).
In assay [4] the target is SIVcpz CA, disulfide-stabilised hexamer construct (P14C, E45C, W184A, M185A) (SIVcpz (SIVcpzPtt)).
Assay [5] has as its target SIVmac CA, disulfide-stabilised hexamer construct (P13C, E44C, W182A, M183A) (SIVmac).

Usually stoichiometry N stands for the number of molecules, sites or subunits per partner or assembly. With “HIV-1 (M) CA R120 (arginine restored at CA position 120) (natural protein)”, in assay [1], the stoichiometry N was 6. “HIV-1 (M-group) CA Q50Y, disulfide-stabilised hexamer construct (A14C, E45C, Q50Y, W184A, M185A) (natural protein)” displayed a stoichiometry N in assay [2] of 6. In assay [3], “HIV-1 (O-group) CA, disulfide-stabilised hexamer construct (A14C, E45C, W185A, M186A) (natural protein)” showed a stoichiometry N of 6. Take “SIVcpz CA, disulfide-stabilised hexamer construct (P14C, E45C, W184A, M185A) (natural protein)”: the stoichiometry N in assay [4] came to 6. In assay [5], “SIVmac CA, disulfide-stabilised hexamer construct (P13C, E44C, W182A, M183A) (natural protein)” showed a stoichiometry N of 6.

The values above are taken from article doi:10.1101/2022.01.21.477263.
